± gives the uncertainty stated by the source.
Experiment: amyloid nucleation score (Sup35N fusion, yeast selection) (log enrichment); library NNK2; higher = more nucleation; inactive = no reads after selection
In short: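 Libraries of peptides of 20 random codons fused to Sup35N were expressed in psi-negative yeast and induced 24 hours with 100 μM copper sulfate. Selection was 7 days at 30°C on medium lacking adenine and uracil, and plasmid inserts were Illumina-sequenced before and after selection. Nucleation score is the DiMSum log enrichment of output over input reads, centred on the mode score of non-aggregating sequences, and sequences with under 100 input reads were left out.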

Substance	amyloid nucleation score
IVSSGPIKLNTSCFRTAYML	-0.854 ± 0.63
IVSVYATAIGGVRFRECCIG	-0.09 ± 0.34
IVTAVITM	inactive
IVVRL	0.639 ± 0.41
IVYFGQVIIFMVMSNSVCSL	-1.38 ± 1
IVYWSSEWRKPGAHDTLD	0.451 ± 0.24
IWSQW	-0.134 ± 1.1
IWSSHRVSHGVILESGEVWA	-0.25 ± 0.42
IWTRLGYRQVPRYSAIFSAV	0.136 ± 0.37
IWYESWEQHGKDVQVPMVTD	0.623 ± 0.22
IYACSCLIKVDFYEAIPIWV	inactive
IYEGIIVIFSDTGTLWRYWI	-2.09 ± 0.54
IYGSYVLDLVGVNLAGKGEN	-0.347 ± 1
IYHYPKRREGVIK	0.224 ± 0.56
IYKQLMVCHKCSDSAVTGYQ	6.14 ± 0.075
IYLQGAGLL	inactive
IYLSTCTYF	0.155 ± 0.49
IYRDPHNYCM	-0.751 ± 1.1
IYRGESIIWVNNSWIEDSLR	1.56 ± 0.12
IYRRPMENI	-0.389 ± 0.36
IYRTYYGMNACLINLCMFDN	7.734 ± 0.055
IYVGIHNLILMTSTLGVNKR	6.06 ± 0.041
IYWLKTPMLLYWGSPCPRNA	0.058 ± 1
KAFFFPQFCCIYGLGM	8.903 ± 0.035
KAKWFNFLFYNFLQYACLSQ	1.37 ± 0.087

Substance	amyloid nucleation score
KAKYTTILCCIDRCGCIGQY	8.613 ± 0.046
KARSRLLVFYKYTKGIWAQS	-0.147 ± 1.1
KATRTFY	0.495 ± 0.34
KATSCFLDWCGCPWHLMALD	0.496 ± 0.29
KAWFLESSKYSYRSWFR	-0.641 ± 0.38
KCILDRVRGTGLGIMKLKRG	0.306 ± 0.65
KCSKLRGYTCIMLSIGCLNY	2.71 ± 0.07
KCSSCEF	0.768 ± 0.47
KCWLLGHWEDFCTLSKMERN	inactive
KDCLTVVMLSLVHLRPCY	inactive
KDGKALT	inactive
KDLPFGTYGNGGAGSRTMRH	0.19 ± 0.27
KELYTSVSQGLCRYSISSCR	-0.786 ± 0.35
KFACCRYVGVYYKTTYSILR	-1.17 ± 0.49
KFCSRVFSQCMSYLSCLLDF	0.17 ± 0.74
KFKLLMTSRWDTFNVADTYD	5.04 ± 0.042
KFYIPSDLVLVRCPST	-0.883 ± 1.1
KGDQKSTFCVRPFWESPNIV	-0.046 ± 0.74
KGLWTISVSLWVV	0.112 ± 0.18
KGRFHNLTEPGRVQEKE	-1.32 ± 0.49
KHLRFASEVNFSARVPPPWL	-0.229 ± 0.33
KHSEDSYCFMSGLSGVICCK	0.932 ± 0.19
KHSIMRRKRGFPATKR	0.722 ± 0.43
KILNCTGSQVKS	-0.032 ± 0.25
KILSYASLSAGSFLVQ	-0.531 ± 1.1

Substance	amyloid nucleation score
KIRASVNSSRFFWFDAS	2.96 ± 0.13
KISFVALAVDARYGWCLFHY	0.358 ± 0.24
KISSLLGWLWRITIRRLGRA	0.617 ± 0.65
KISSMAVI	0.069 ± 0.48
KKKDSAKLLVTE	-0.409 ± 0.76
KLAVCLCGSKHNDLGYRGDP	inactive
KLFQNHLIINCPAMVISNEQ	7.609 ± 0.057
KLGKPFARRKFCICNSQWVG	-0.743 ± 0.31
KLGWTRLTPNVAHFHLIVGL	0.583 ± 0.4
KLGYHLSMIFVFRNVVCPYI	-0.711 ± 1.1
KLHQNSKGCPGVLPVDGLKM	0.82 ± 0.56
KLKCHMSESLKWIGAVKSRR	0.776 ± 0.43
KLKSVRDLSCLSYHSDIKVK	3.58 ± 0.055
KLLPEWSWKG	0.428 ± 0.39
KLNLGGCLMSRVYC	0.345 ± 0.16
KLPIRLMTCASNFNLGNCWL	6.003 ± 0.038
KLRFYIYCFILLKCMTGART	inactive
KLSWRIRA	0.403 ± 0.42
KMAMTVLILPYVPGQLRLTE	3.12 ± 0.1
KNFFSRRTW	2.98 ± 0.14
KNGATLSCYILYSCGLMASV	-2.34 ± 0.62
KNNSFWGISLTGLLGYIYTR	-0.627 ± 1
KNRRFT	-0.493 ± 1.1
KNSCSMYVMMCGSQVLGLVS	7.75 ± 0.084
KNTMIGSLRLVIYFSSGDKV	7.17 ± 0.034

Substance	amyloid nucleation score
KPLLVN	0.271 ± 0.46
KPSKYPVYLLGVVKVQVDYD	-0.849 ± 1.1
KQFDMDAWLTWSRMVFMSPV	0.044 ± 0.39
KQLKWFCITK	-0.862 ± 0.45
KQVNPPIA	-0.541 ± 1.1
KRDRIAFPMEIDDIIKAWM	-0.929 ± 0.55
KRFGLVCVIQQAQKWVNGTG	0.179 ± 0.51
KRGSAEFNQLDHYECTRYEC	inactive
KRHNR	0.846 ± 0.48
KRKISDSSPRDRWVALLKKL	2.15 ± 0.15
KRLVGVTAMMCSFFLYLFLE	0.859 ± 0.35
KRTWRFFYRL	inactive
KRYTHRCKPFTLHHLPVDAR	1.25 ± 0.33
KSCYIAV	-0.066 ± 0.45
KSGGDDLESSWRCWASMGLM	0.182 ± 0.31
KSICARVFTIQMRNVSVQSS	0.158 ± 0.43
KSLDYFSECRDSPNML	-0.757 ± 0.48
KSLKCFHLVRFTFS	-0.492 ± 0.36
KSLYCVNFLCRPECANPSSS	6.592 ± 0.029
KSMFRTNLYIIILQSSTRFQ	-1.06 ± 0.76
KSRFIFRVSVLDPRASVAWL	inactive
KSSSAVIW	-0.045 ± 0.53
KSTATSYVMPK	-0.072 ± 0.25
KSVQDNDMSPACRAD	0.804 ± 0.45
KSVTDSL	0.878 ± 0.44

Substance	amyloid nucleation score
KSYLWASAAVEGNCYNPVNR	-0.195 ± 0.48
KTFTPSIELGYMGHCDCDT	-1.03 ± 0.45
KTIQVGQVA	1.24 ± 0.29
KTIRRDVCIVVLSLQSDLNM	5.62 ± 0.069
KTLTVFAISYC	0.482 ± 0.55
KTNHEELKA	inactive
KTPVGYTRRGSPFTR	1.16 ± 0.33
KTREFNEQIVYGASVYVYQG	0.672 ± 0.43
KTRLPGVL	inactive
KVECEVWVRWVRCDGCAAGK	1.22 ± 0.2
KVFLFIFGLLTESPGCDQSP	-0.536 ± 0.4
KVIWIRCLFLYMCWAAHG	-0.557 ± 0.78
KVLMLQHPIGYLLNILTMS	-0.017 ± 0.41
KVQHLQR	0.403 ± 0.26
KVRDCIMPRCRGRVCICNYG	-0.29 ± 0.25
KVRTLINLRSRVTLRYDLSI	-0.237 ± 0.24
KVSDRVGLEPKVCAQRRRNL	0.025 ± 0.27
KVSVTMHLAKMDFCRLWG	7.11 ± 0.046
KVYSKCFNGFRS	0.164 ± 0.8
KWDWICSVRCRVRSAYQMSN	inactive
KWIMWLDRYPDTSPCILYAQ	4.42 ± 0.055
KYCCWLRCGLIYNWGGNQDV	5.14 ± 0.064
KYGAPS	-0.029 ± 1.1
KYMLLCSICIFRNQGKKFRL	8.384 ± 0.052
KYNLRDSNCSTCMFGSSRVS	4.251 ± 0.04

Substance	amyloid nucleation score
KYRKSGSERTRARTGVCTVW	0.585 ± 0.66
KYRTYPGVGIIGRVDSSLRT	0.741 ± 0.51
KYSNVTCWFSDHLGWRFHTF	inactive
LAFRFDVLKWINA	-0.263 ± 0.27
LAGYNFLKETRDMVTIMAYE	inactive
LAHETLCLDTYRDPW	-1.54 ± 1
LAMLRS	1.17 ± 0.34
LAPPKKAFISVKMSLDRYCV	-0.305 ± 0.26
LAPVYEFEVWIHGIRGRCAW	4.18 ± 0.065
LAQPCQE	-0.033 ± 0.55
LAQQRPLRQRTMRHGSRFTA	0.671 ± 0.43
LAQRSNFRASCWINFLGWLD	inactive
LASHVVWTDKN	6.635 ± 0.041
LATLVNCCTIVNRSNFGIMH	6.985 ± 0.061
LCASHIYL	0.087 ± 0.79
LCERYWKALK	inactive
LCFFT	0.383 ± 0.74
LCFMF	0.4 ± 0.51
LCGHSNTAVWARHPEYSLVS	inactive
LCHLVFVVSDWRQRLRVFTV	4.37 ± 0.05
LCLELFKQSVQFGLC	0.325 ± 0.35
LCLTR	-0.307 ± 0.63
LCNSEIFNMANISMS	0.498 ± 0.19
LCNSTNSESIIVLDITALTH	0.405 ± 0.51
LCQNKTMTIGRFKIGHKWYP	0.004 ± 1.1

Substance	amyloid nucleation score
LCRNSSVFRCSGK	0.311 ± 0.17
LCSRFALWVRKF	-0.291 ± 0.63
LCSSKETDMPFLVLQSLKSN	-0.791 ± 0.78
LCVYMFT	3.51 ± 0.12
LCWEVRTLEFIGFTQSYGKG	-0.005 ± 0.33
LCYGFEYHVDGLYNVSYESS	0.298 ± 0.37
LDAGCRMYWGVRLEFRICNL	4.79 ± 0.062
LDDPCSHYILGSGHDHVLRR	0.697 ± 0.81
LDGITSIDG	-1.15 ± 0.74
LDIYYMMYYFRFSWD	-2.64 ± 0.75
LDLALSQH	1.54 ± 0.53
LDLNFEWFW	inactive
LDPSVLMLWLFYRVQSLHVS	0.008 ± 0.35
LDSSYY	inactive
LDWAWACSWVVA	0.389 ± 0.8
LEMCVLR	0.23 ± 0.45
LEPGAFRSIVFRIND	0.961 ± 0.48
LEQFYCTMGSSFNMNGGMVI	-0.436 ± 0.29
LERNSMPITVSWSGFEGLKG	-0.295 ± 0.65
LFACFRNMLV	0.504 ± 0.39
LFAYCMDSHLHTTSKFILTL	0.047 ± 0.5
LFFYTYWC	inactive
LFGVYMLQVCVKNSKLSRSE	-0.133 ± 1
LFINNDTNDNYH	-1.18 ± 0.47

From the supplement of paper PMC12042874
